B1: POU domain, class 4, transcription factor 2, residues 256 to 327; numbered along this chain, Q12837 (parent)
chain: RDLEAFAERFKQRRIKLGVTQADVGSALANLKIPGVGSLSQSTICRFESLTLSHNNMIALKPILQAWLEEAE

± gives the uncertainty stated by the source.

In the data set the parent is B1. The data set is described as follows: abundance fitness (aPCA) (normalised: wild type 0, dead -1); higher = more abundant; growth selection in yeast, the domain comes from the species named. The note with it: Homo sapiens.
Turning to RDLEAFAERFKQRHIKLGVTQADVGSALANLKIPGVGSLSQSTICRFESLTLSHNNMIALKPILQAWLEEAE [R14H], the abundance fitness was -0.859 ± 0.21.
The result for RDLEAFAERFKVRRIKLGVTQADVGSALANLKIPGVGSLSQSTICRFESLTLSHNNMIALKPILQAWLEEAE [Q12V] reads -0.232 ± 0.091; that for RDLEAFAERFKMRRIKLGVTQADVGSALANLKIPGVGSLSQSTICRFESLTLSHNNMIALKPILQAWLEEAE [Q12M], -0.194 ± 0.1.
With RDLEAFAERFKQRRIKLGVTQADVGSALANLWIPGVGSLSQSTICRFESLTLSHNNMIALKPILQAWLEEAE [K32W], the abundance fitness was -0.188 ± 0.082.
Turning to RDLEAFAERFKQYRIKLGVTQADVGSALANLKIPGVGSLSQSTICRFESLTLSHNNMIALKPILQAWLEEAE [R13Y], the abundance fitness is -0.761 ± 0.31.
For RDLEAFAERFKQVRIKLGVTQADVGSALANLKIPGVGSLSQSTICRFESLTLSHNNMIALKPILQAWLEEAE [R13V] the value was 0.067 ± 0.057; for RDLEAFAERFKQRRIKLGVTQADVGSALANLKIPGVGSLSQSTICRFESLTLSHNNMIALKAILQAWLEEAE [P62A], -0.668 ± 0.082.
For RDLEAFAERFKQRRIKLGVTQADVGSALANLKIPGVGSLSQSTICRFESLTLSHNNMIALKQILQAWLEEAE [P62Q], the abundance fitness is -0.623 ± 0.16.
The result for RDLEAFAERFKQRRIKLGVTQADVGSALANTKIPGVGSLSQSTICRFESLTLSHNNMIALKPILQAWLEEAE [L31T] reads -0.149 ± 0.1; that for RDLEAFAERFKQRRIKLGVTQADVGSALANDKIPGVGSLSQSTICRFESLTLSHNNMIALKPILQAWLEEAE [L31D], -0.509 ± 0.26; that for RDLEAFAERFKQRRIKLGVTQADVGSALANLKIPGVGSLSQSHICRFESLTLSHNNMIALKPILQAWLEEAE [T43H], -0.274 ± 0.17.
On to RDLEAFAERFKQRRIKLGVTQADVGSALANLKIPGVGSLSQSTICRFESLTLSHNNMIALKPILQAWLKEAE [E69K], for which the abundance fitness is -0.458 ± 0.24.
For RDLEAFAERFKQRRIKLGVTQADVGSALANLKIPGVGSLSQSTICRFESLTLSHNNMIALKPILQAWLFEAE [E69F] the value was -0.251 ± 0.092.
Take RDLEAFAERFKQRRIKLGVTQADVGSALANLKIPGVGSLSQSTICRFESLTLSHNNMIALKPILQAWLTEAE [E69T]: the abundance fitness is -0.133 ± 0.095.
Regarding RDLEAFAERFKQRRIKLGVTQADVGSALANLKIPGVGSLSQSTICRFESLTLSHLNMIALKPILQAWLEEAE [N55L], the abundance fitness was -0.121 ± 0.055.
For RDLEAFAERFKQRRIKLGVTQADVGSALANLKIPGVGSLSQSTICRFESLTLSHKNMIALKPILQAWLEEAE [N55K] the value was -0.016 ± 0.15; for RDLEAFAERFKQRRIKLGVTQADVGSALANLKIPGVGSLSQSTICRFESLTLSHNNMIALKPFLQAWLEEAE [I63F], 0.164 ± 0.31; for RDLEAFAERFKQRRIKLGVTQADVGSALANLKIPGVGKLSQSTICRFESLTLSHNNMIALKPILQAWLEEAE [S38K], -0.127 ± 0.082.
Turning to RDLEAFAERFKQRRIKLGVTQADVGSALANLKIPGVGELSQSTICRFESLTLSHNNMIALKPILQAWLEEAE [S38E], the abundance fitness was -0.127 ± 0.13.
For RDLEAFAERFKQRRIKLGVTQADVGSALANLKIPGVGHLSQSTICRFESLTLSHNNMIALKPILQAWLEEAE [S38H], the abundance fitness was 0.104 ± 0.12.
As for RDLEAFAERFKQRRIKLGVTQADVGSALANLKIPGVGVLSQSTICRFESLTLSHNNMIALKPILQAWLEEAE [S38V], the abundance fitness is -0.159 ± 0.069.
For RDLEAFAERFKQRRIKLGVTQADVGSALANLKIPGVGSLSQSTICRFESLTLSHNNMIALKPILRAWLEEAE [Q65R] the value was -0.37 ± 0.079; for RDLEAFAERFKQRRIKLGVTQADVGSALANLKIPGVGSLSQSTICRFESLTLSHNNMIALKPILEAWLEEAE [Q65E], 0.058 ± 0.092; for RDLEAFAERFKQRRIKVGVTQADVGSALANLKIPGVGSLSQSTICRFESLTLSHNNMIALKPILQAWLEEAE [L17V], -0.592 ± 0.11.
For RDLEAFAERFKQRRIKLGVTQADVGAALANLKIPGVGSLSQSTICRFESLTLSHNNMIALKPILQAWLEEAE [S26A] the value was 0.176 ± 0.081.
For the variant RDLEAFAERFKQRRIKLGVTQADVGRALANLKIPGVGSLSQSTICRFESLTLSHNNMIALKPILQAWLEEAE [S26R], the abundance fitness is 0.062 ± 0.055.
The result for RDLDAFAERFKQRRIKLGVTQADVGSALANLKIPGVGSLSQSTICRFESLTLSHNNMIALKPILQAWLEEAE [E4D] reads -0.282 ± 0.11.
Take RDLSAFAERFKQRRIKLGVTQADVGSALANLKIPGVGSLSQSTICRFESLTLSHNNMIALKPILQAWLEEAE [E4S]: the abundance fitness is -0.141 ± 0.061.
The result for RDLEAFAERFKQRRIKLGVTQAWVGSALANLKIPGVGSLSQSTICRFESLTLSHNNMIALKPILQAWLEEAE [D23W] reads -0.495 ± 0.085; that for RDLEAFAERFKQRRIKLGVTQAKVGSALANLKIPGVGSLSQSTICRFESLTLSHNNMIALKPILQAWLEEAE [D23K], 0.09 ± 0.11.
Regarding RDLEAFAERFKQRRIKLGVTQADVGSALANLKCPGVGSLSQSTICRFESLTLSHNNMIALKPILQAWLEEAE [I33C], the abundance fitness was -0.395 ± 0.22.
The result for RDLEAFAERFKQRRIKLGVTQADVGSADANLKIPGVGSLSQSTICRFESLTLSHNNMIALKPILQAWLEEAE [L28D] reads -0.596 ± 0.44.
For RDVEAFAERFKQRRIKLGVTQADVGSALANLKIPGVGSLSQSTICRFESLTLSHNNMIALKPILQAWLEEAE [L3V] the value was -0.153 ± 0.061; for RDLEAFLERFKQRRIKLGVTQADVGSALANLKIPGVGSLSQSTICRFESLTLSHNNMIALKPILQAWLEEAE [A7L], -0.936 ± 0.19; for RDLEAFAPRFKQRRIKLGVTQADVGSALANLKIPGVGSLSQSTICRFESLTLSHNNMIALKPILQAWLEEAE [E8P], -0.862 ± 0.097.
Regarding RDLEAFARRFKQRRIKLGVTQADVGSALANLKIPGVGSLSQSTICRFESLTLSHNNMIALKPILQAWLEEAE [E8R], the abundance fitness was 0.031 ± 0.041.
For RDLEAFAERFKQRRIKLGVTQADVGSALANLKIPGVGSLSQSTICRFESLTLSHNNMIALKPISQAWLEEAE [L64S] the value was -0.669 ± 0.089.

These data come from the Human Domainome abundance scans (Beltran et al. 2025).
